The results in this text go back to US20180142018A1 (NOVIMMUNE, published 2018).

Assay [1] has as its target T1, human CD19 (human, UniProt P15391 20-556).
T1 construct: whole, on cells; also called huCD19
T1 sequence (looked up): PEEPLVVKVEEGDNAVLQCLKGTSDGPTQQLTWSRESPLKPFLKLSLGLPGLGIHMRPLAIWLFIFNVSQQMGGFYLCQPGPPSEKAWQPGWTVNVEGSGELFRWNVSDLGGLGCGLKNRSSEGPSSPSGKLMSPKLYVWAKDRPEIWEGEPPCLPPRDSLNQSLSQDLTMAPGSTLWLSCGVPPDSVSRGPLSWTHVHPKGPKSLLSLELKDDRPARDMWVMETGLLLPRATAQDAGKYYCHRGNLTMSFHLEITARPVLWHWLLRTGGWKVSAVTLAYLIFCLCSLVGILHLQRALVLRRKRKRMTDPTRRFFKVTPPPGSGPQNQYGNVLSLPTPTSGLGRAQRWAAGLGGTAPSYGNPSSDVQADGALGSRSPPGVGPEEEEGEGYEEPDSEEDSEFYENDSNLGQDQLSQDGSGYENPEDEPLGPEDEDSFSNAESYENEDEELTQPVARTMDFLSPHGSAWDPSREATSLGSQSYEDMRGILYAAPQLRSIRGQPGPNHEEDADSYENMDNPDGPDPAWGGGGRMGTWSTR
Description: FACS on human PBMC gated on CD20+ B lymphocytes, 30 and 3 µg/mL. The procedure:
(§1) The ability of various anti-CD19 antibodies of the disclosure to bind various peripheral blood mononuclear cells (PBMC). Human and cynomolgus PBMC from frozen aliquots in citrate buffer were tested. […] The PBMC were labelled with anti-CD20-PE monoclonal antibody (mAb), anti-CD14-FITC mAb, and anti-CD3-PerCP mAb cross-reactive both to human and cynomolgus species. Cell surface bound hIgG1 were detected with a mouse anti-human IgG Fc-APC mAb. FACS gating was performed with the anti-CD20 mAb for the B lymphocyte population, with the anti-CD3 for the T lymphocyte population and with anti-CD14 for the monocyte population.

Assay [2] addresses T2, cynomolgus CD19 (cynomolgus monkey, UniProt A0A2K5W8L9 20-557).
T2 construct: whole, on cells; also called cynoCD19; cynomolgus monkey CD19
T2 sequence: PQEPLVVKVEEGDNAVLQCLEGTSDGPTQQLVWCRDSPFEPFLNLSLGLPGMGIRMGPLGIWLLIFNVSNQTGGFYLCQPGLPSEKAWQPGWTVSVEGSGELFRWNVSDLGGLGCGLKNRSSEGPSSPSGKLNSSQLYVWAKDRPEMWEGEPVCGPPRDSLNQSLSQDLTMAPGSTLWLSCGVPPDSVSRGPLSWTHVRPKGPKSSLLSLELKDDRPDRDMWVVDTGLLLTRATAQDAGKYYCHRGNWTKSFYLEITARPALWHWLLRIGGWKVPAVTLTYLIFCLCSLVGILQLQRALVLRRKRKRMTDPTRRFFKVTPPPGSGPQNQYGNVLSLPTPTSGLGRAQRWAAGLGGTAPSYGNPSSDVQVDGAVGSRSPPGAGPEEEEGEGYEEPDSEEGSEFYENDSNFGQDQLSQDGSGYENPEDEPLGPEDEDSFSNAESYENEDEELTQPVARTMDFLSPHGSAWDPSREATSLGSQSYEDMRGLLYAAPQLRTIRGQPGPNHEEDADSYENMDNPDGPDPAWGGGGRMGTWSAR
Put plainly: FACS on PBMC CD20+ B lymphocytes; human over cynomolgus, told of the group of anti-CD19 antibodies. The procedure: as §1

Assay [3] deals with T1, human CD19. Description: FACS on human B lymphocyte cell lines (Raji, Ramos, Nalm6, Su-DHL6, Su-DHL4, Mec2); binding lost on CD19-silenced Raji siRNA. The procedure:
The ability of various anti-CD19 antibodies of the disclosure to bind various human B lymphocyte cell lines was evaluated. In particular, the human IgG1 5F5, 7F11, 9G8, F6, 7F1, and 10D8 anti-CD19 antibodies were evaluated for their abilities to bind (i) six human B lymphocyte cell lines: Raji, Ramos, Nalm6, Su-DHL6, Su-DHL4, and Mec2, (ii) a CD19 silenced B cell line: Raji siRNA; and a negative cell line (Jurkat). All incubations were prepared in FACS buffer (PBS, BSA 2%) at 4° C. Fc receptors on B cells were blocked with 10% mouse serum. Four doses of hIgG1 were tested: 10, 1, 0.1 and 0.01 μg/mL. Cell surface bound hIgG1 were detected with a mouse anti-human IgG Fc-PE mAb.

B1: F6 antibody (antibody, human IgG1, V domains shown)
VH: EVQLVQSGAEVKKPGESLKISCKGSGYSFTSYWIGWVRQMPGKGLEWMGIIYPGDSDTRYSPSFQGQVTISADKSISTAYLQWSSLKASDTAMYYCARVWYYDFWSGADAFDIWGQGTLVTVSS
VL: EIVMTQSPATLSVSPGERATLSCRASQSVSSNLAWYQQKPGQAPRLLIYGASTRATGIPARFSGSGSGTEFTLTISSLQSEDFAVYYCQQGSLEAPQTFGQGTKVEIK
notes: also called human IgG1 F6 anti-CD19 antibody
As to B1, in assay [1], the binding result was “binds”. In assay [2], the “fold higher binding on human than on cynomolgus PBMC” value (“fold higher binding on human than” below) was at most 10 fold.

B2: 7F1 antibody (antibody, human IgG1, V domains shown)
VH: EVQLVQSGAEVKKPGESLKISCKGSGYSFTSYWIGWVRQMPGKGLEWMGIIYPGDSDTRYSPSFQGQVTISADKSISTAYLQWSSLKASDTAMYYCARGDYWTGFAYWGQGTLVTVSS
VL: QSVLTQPPSVSAAPGQKVTISCSGSSSNIGNNYVSWYQQLPGTAPKLLIYDNNKRPSGIPDRFSGSKSGTSATLGITGLQTGDEADYYCGTWDLGWNSVFGGGTKLTVL
notes: also called human IgG1 7F1 anti-CD19 antibody
Regarding B2, the binding result in assay [1] is on record as “binds”.

B3: 10D8 antibody (antibody, human IgG1, V domains shown)
VH: QVQLVQSGAEVKKPGSSVKVSCKASGGTFSSYAISWVRQAPGQGLEWMGGIIPIFGTANYAQKFQGRVTITADESTSTAYMELSSLRSEDTAVYYCARDRGYDYVWGSYRYGAFDIWGQGTLVTVSS
VL: QSALTQPASVSGSPGQSITISCTGTSSDVGGYNYVSWYQQHPGKAPKLMIYEVSNRPSGVSNRFSGSKSGNTASLTISGLQAEDEADYYCSSYDVWVPHMVFGGGTKLTVL
notes: also called human IgG1 10D8 anti-CD19 antibody
As to B3, the binding result in assay [1] is “binds”.

B4: 7F11 antibody (antibody, human IgG1, V domains shown)
VH: EVQLVQSGAEVKKPGESLKISCKGSGYSFTSYWIGWVRQMPGKGLEWMGIIYPGDSDTRYSPSFQGQVTISADKSISTAYLQWSSLKASDTAMYYCARGVSGIYNLHGFDIWGQGTLVTVSS
VL: DIQMTQSPSSLSASVGDRVTITCRASQSISSYLNWYQQKPGKAPKLLIYAASSLQSGVPSRFSGSGSGTDFTLTISSLQPEDFATYYCQQGMWDNPFTFGQGTKVEIK
notes: also called human IgG1 7F11 anti-CD19 antibody
With B4, the binding result in assay [1] is “binds”. Besides, in assay [2], the “fold higher binding on human than” value is at most 10 fold.

B5: 9G8 antibody (antibody, human IgG1, V domains shown)
VH: EVQLVQSGAEVKKPGESLKISCKGSGYSFTSYWIGWVRQMPGKGLEWMGIIYPGDSDTRYSPSFQGQVTISADKSISTAYLQWSSLKASDTAMYYCARGVSGIYNLHGFDIWGQGTLVTVSS
VL: DIQMTQSPSSLSASVGDRVTITCRASQSISSYLNWYQQKPGKAPKLLIYAASSLQSGVPSRFSGSGSGTDFTLTISSLQPEDFATYYCQQGRFGSPFTFGQGTKVEIK
notes: also called human IgG1 9G8 anti-CD19 antibody
Consider B5, for which the binding result in assay [1] is “binds”. Also, the “fold higher binding on human than” value in assay [2] was at most 10 fold.

B6: 5F5 antibody (antibody, human IgG1, V domains shown)
VH: EVQLVQSGAEVKKPGESLKISCKGSGYSFTSYWIGWVRQMPGKGLEWMGIIYPGDSDTRYSPSFQGQVTISADKSISTAYLQWSSLKASDTAMYYCARGISGIYNLHGFDIWGQGTLVTVSS
VL: DIQMTQSPSSLSASVGDRVTITCRASQSISSYLNWYQQKPGKAPKLLIYAASSLQSGVPSRFSGSGSGTDFTLTISSLQPEDFATYYCQQASLDSPLTFGQGTKVEIK
notes: also called human IgG1 5F5 anti-CD19 antibody
Consider B6, for which, in assay [3], the binding result is listed as “binds”. Besides, in assay [2], the “fold higher binding on human than” value was at most 10 fold.
